Experimental data: article PMC4824898 (2016)

Biological target: rabbit skeletal muscle actin (Oryctolagus cuniculus (Rabbit), UniProt P68135)
Assay: actin co-sedimentation; polymerised (filamentous) actin

B1: actin-binding domain (ABD) of S. pombe α-actinin (protein)
chain: MQANQWQSVQNRTFTKWFNTKLSSRDLPSVFDLRKDLSDGILLIQLLEIIGDENLGRYNRNPRMRVHRLENVNKALEYIKSKGMPLTNIGPADIVDGNLKLILGLIWTLILRFTIADINEEGLTAKEGLLLWCQRKTANYHPEVDVQDFTRSWTNGLAFCALIHQHRPDLLDYNKLDKKNHRANMQLAFDIAQKSIGIPRLIEVEDVCDVDRPDERSIMTYVAEYFHAFSTLDK
B1: no binding.
